Assays:
human VEGF165 [1] = target: T1, human VEGF165 (human, UniProt P15692-4 27-191); experiment: BIAcore 2000; t½ = 0.693/kd
T1 construct: also called hVEGF165
Protocol: (§1) Binding assays were carried out by first capturing around 100 RU of each fusion protein construct to the immobilized anti-VEGFR1 mAb, after which various concentrations (0-2 nM) of human VEGF165 were injected over the captured fusion protein surface at a flow rate of 100 μl/min for 2 minutes. The fusion protein constructs binding kinetic parameters including ka (1/Ms) (association rate constant), kd (1/s) (dissociation rate constant) and KD (dissociation equilibrium constant) were determined using the BIA evaluation 4.1 computer program (Biacore, Inc.), and t½ was determined using formula 0.693/kd (dissociation rate).

human VEGF165 [2] = target: T1, human VEGF165; experiment: BIAcore 2000; fusion protein captured on anti-VEGFR1 mAb, human VEGF165 (0-2 nM) injected
Protocol: as §1

human VEGF165 [3] = target: T1, human VEGF165; experiment: kinetic dissociation rate from hVEGF165, as described in WO/0075319
human VEGF165 [4] = target: T1, human VEGF165; experiment: half-life of dissociation from hVEGF165, as described in WO/0075319

T1 sequence (P15692 other isoform, or with tags, fused parts or gaps limits assumed): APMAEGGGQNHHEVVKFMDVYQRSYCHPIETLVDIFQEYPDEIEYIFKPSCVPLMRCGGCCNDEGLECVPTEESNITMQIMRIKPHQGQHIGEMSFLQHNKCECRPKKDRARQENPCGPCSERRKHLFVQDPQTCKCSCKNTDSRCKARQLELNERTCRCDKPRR

Row | Binder | t½ (human VEGF165 [1]) | Kd (human VEGF165 [2]) | koff (human VEGF165 [2]) | kon (human VEGF165 [2]) | koff (human VEGF165 [3]) | T1/2 (human VEGF165 [4])
1 | fusion protein R1R2R1R2 (SEQ ID NO:24), single chain VEGF mini-trap (receptor, Monomer, secreted from CHO K1 cells; also called R1R2-R1R2 VEGF mini-trap; (R1R2)2) SDTGRPFVEMYSEIPEIIHMTEGRELVIPCRVTSPNITVTLKKFPLDTLIPDGKRIIWDSRKGFIISNATYKEIGLLTCEATVNGHLYKTNYLTHRQTNTIIDVVLSPSHGIELSVGEKLVLNCTARTELNVGIDFNWEYPSSKHQHKKLVNRDLKTQSGSEMKKFLSTLTIDGVTRSDQGLYTCAASSGLMTKKNSTFVRVHEKGPGRPFVEMYSEIPEIIHMTEGRELVIPCRVTSPNITVTLKKFPLDTLIPDGKRIIWDSRKGFIISNATYKEIGLLTCEATVNGHLYKTNYLTHRQTNTIIDVVLSPSHGIELSVGEKLVLNCTARTELNVGIDFNWEYPSSKHQHKKLVNRDLKTQSGSEMKKFLSTLTIDGVTRSDQGLYTCAASSGLMTKKNSTFVRVHEK | 24.1 h | 1.76 pM | 8e-06 s⁻¹ | 4.54e+06 M⁻¹ s⁻¹ | – | –
2 | recombinant monomeric R1R2-myc myc his (receptor, not shown: small tags and cut ends, Monomer with a C-terminal myc-myc-His tag that is not given in letters and is left out., Monomer; also called R1R2-myc myc his monomer) GRPFVEMYSEIPEIIHMTEGRELVIPCRVTSPNITVTLKKFPLDTLIPDGKRIIWDSRKGFIISNATYKEIGLLTCEATVNGHLYKTNYLTHRQTNTIIDVVLSPSHGIELSVGEKLVLNCTARTELNVGIDFNWEYPSSKHQHKKLVNRDLKTQSGSEMKKFLSTLTIDGVTRSDQGLYTCAASSGLMTKKNSTFVRVHEK | – | – | – | – | 0.00674 s⁻¹ | 1.68 min
